The values that follow come from patent publication US20210371538A1 (Genmab, published 2021).

For this test, the target named is T1, CD20 (human, UniProt P11836 1-297, limits assumed).
T1 construct: The KD sentence says only 'CD20'; also called human CD20; B-cell antigen CD20
T1 sequence (looked up): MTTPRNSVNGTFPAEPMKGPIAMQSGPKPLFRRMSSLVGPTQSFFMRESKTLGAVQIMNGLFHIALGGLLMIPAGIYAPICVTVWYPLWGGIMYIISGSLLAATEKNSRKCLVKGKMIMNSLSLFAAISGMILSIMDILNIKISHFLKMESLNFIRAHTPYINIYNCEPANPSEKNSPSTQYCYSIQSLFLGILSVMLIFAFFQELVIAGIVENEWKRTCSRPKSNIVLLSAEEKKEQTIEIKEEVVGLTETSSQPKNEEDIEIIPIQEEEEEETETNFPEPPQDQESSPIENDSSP
Nature of the test: in vitro measurement, method not stated; used as a PK/PD model parameter.

B1: DuoBody-CD3×CD20 (bispecific antibody, human IgG1, kappa, lambda)
heavy 1: not shown
light 1: not shown
heavy 2: EVQLVESGGGLVQPDRSLRLSCAASGFTFHDYAMHWVRQAPGKGLEWVSTISWNSGTIGYADSVKGRFTISRDNAKNSLYLQMNSLRAEDTALYYCAKDIQYGNYYYGMDVWGQGTTVTVSSASTKGPSVFPLAPSSKSTSGGTAALGCLVKDYFPEPVTVSWNSGALTSGVHTFPAVLQSSGLYSLSSVVTVPSSSLGTQTYICNVNHKPSNTKVDKRVEPKSCDKTHTCPPCPAPEFEGGPSVFLFPPKPKDTLMISRTPEVTCVVVAVSHEDPEVKFNWYVDGVEVHNAKTKPREEQYNSTYRVVSVLTVLHQDWLNGKEYKCKVSNKALPAPIEKTISKAKGQPREPQVYTLPPSREEMTKNQVSLTCLVKGFYPSDIAVEWESNGQPENNYKTTPPVLDSDGSFFLYSRLTVDKSRWQQGNVFSCSVMHEALHNHYTQKSLSLSPG
light 2: not shown
notes: Full-length IgG1 bispecific with an inert Fc (L234F, L235E, D265A), made by controlled Fab-arm exchange of IgG1-CD3-FEAL and IgG1-CD20-FEAR; One heavy/light pair for each arm; also called epcoritamab; GEN3013
As for B1, the affinity, expressed as Kd, was 5.4 nM.

One may read the Kd as a measure of binding affinity in units of concentration. Lower therefore signals tighter binding.
